Our source for the Kd values is PMC7550704 (Molecular Biology of the Cell, 2020).

As a reminder, the Kd is the free concentration of one partner at which half of the binding sites on the other are occupied at equilibrium, for simple one-to-one binding. Read a low Kd as tighter binding.

This test addresses T1, Sgo1^1–150-His6-MBP (X. laevis, UniProt Q4KLP8 1-150).
T1 sequence (looked up): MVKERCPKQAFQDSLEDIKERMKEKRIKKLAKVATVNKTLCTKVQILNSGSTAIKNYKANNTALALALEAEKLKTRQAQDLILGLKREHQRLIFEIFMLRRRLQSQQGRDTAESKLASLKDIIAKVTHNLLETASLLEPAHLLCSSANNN
The experiment in a line: supernatant depletion.

B1: GST-Borealin-2^216–296 (domain or fragment)
chain: not shown
In turn, B1 came in with an equilibrium dissociation constant (Kd) of 10 ± 1.6 µM.
